The format of series [1] is binding, Saccharomyces cerevisiae. The text has this:
CO-sensor of the 19 full-length cytochrome P450 clones from Taxus, thus far obtained, ten have yielded detectable CO-difference spectra (Table 2). […] These alternative expression systems for cytochrome P450 genes include the yeast Pichia pastoris, for which expression vectors and hosts are commercially available (Invitrogen, Carlsbad, Calif.), as well as established E. coli and baculovirus-insect cell systems for which general expression procedures have been described (Barnes, Methods Enzymol. 272:1–14, 1996;Gonzalez et al., Methods Enzymol. 206:93–99, 1991;Lee et al., Methods Enzymol. 272:86–98, 1996;and Lupien et al., Arch. Biochem. Biophys. 368:181–192, 1999).
Appropriate restriction sites were introduced by standard PCR methods (Innis et al., PCR Protocols: A Guide to Methods and Applications, Academic Press, San Diego, Calif., 1990) immediately upstream of the ATG start codon and downstream of the stop codon of all full-length cytochrome P450 clones. These modified amplicons were gel-purified, digested with the corresponding restriction enzymes, and then ligated into the expression vector pYeDP60. The vector/insert junctions were sequenced to ensure that no errors had been introduced by the PCR construction. Verified clones were transformed into yeast using the lithium acetate method (Ito et al., J. Bacteriol. 153:163–168, 1983). Isolated transformants were grown to stationary phase in SGI medium (Pompon et al., Methods Enzymol. 272:51–64, 1996), and used as inocula for a large-scale expression culture grown in YPL medium (Pompon et al., Methods Enzymol. 272:51–64, 1996). Approximately 24 hours after induction of cytochrome P450 expression with galactose (to 10% final concentration), a portion of the yeast cell culture was harvested by centrifugation. One-half of the culture was treated with carbon monoxide, and the cytochrome P450 CO-difference spectrum was recorded directly (using untreated cells as a control) by spectrophotometry (Omura and Sato, J. Biol. Chem. 239:2370–2378, 1964).

Series [2] can be described thus: In vivo assay of yeast cells expressing recombinant oxygenases, radio-HPLC, substrate taxadiene. The class given is cell-based, Saccharomyces cerevisiae. Particulars: assayed with Taxadiene; graded symbols, key not given. The text has this:
(§1) Transformed yeast cells that fimctionally express a recombinant cytochrome P450 gene from Taxus (by CO-difference spectrum) can be tested in vivo for their ability to oxygenate (hydroxylate or epoxidize) taxoid substrates fed exogenously to the cells, thereby eliminating the need for microsome isolation for preliminary in vitro assays.
(§2) Accordingly, several clones of the available full-length clones were expressed in induced yeast host cells.
(§3) Isolated transformants for each full-length cytochrome P450 clone shown to express a functional enzyme by CO-difference spectrum (ten clones) were grown to stationary phase in 2 mL SGI medium at 30° C. and used to inoculate a 10-mL expression culture (in YPL medium). Approximately 8 hours after induction, cells were harvested by centrifugation (10 minutes at 1500 rpm), and the pellet was resuspended in 2 mL of fresh YPL medium.
(§4) To eliminate additional complication and uncertainty associated with microsome isolations for in vitro assays, 10^6 dpm of [20-^3H3]taxa-4(5),11(12)-diene (16 Ci/mol) or [20-^3H2]taxa-4(20),11(12)-diene-5-α-ol (4.0 Ci/mol), or other taxoid substrate were added directly to the cell suspension to assay conversion in vivo. After 12 hours of incubation at 30° C. with agitation (250 rpm), the mixture was treated for 15 minutes in a sonication bath and extracted 3 times with 2 mL diethyl ether to insure isolation of the biosynthetic products. These ether extracts, containing residual substrate and derived product(s), were concentrated to dryness, resuspended in 200 μL of CH3CN, and filtered. These samples were analyzed by radio-HPLC (Hefner et al., Chemistry and Biology 3:479–489, 1996) using a 4.6 mm i.d.×250 mm column of Econosil C18, 5 μ (Alltech, Deerfield, Ill.) with a gradient of CH3CN in H2O from 0% to 85% (10 minutes at 1 mL/minute), then to 100% CH3CN over 40 minutes.

Series [3] in a line: In vivo assay of yeast cells expressing recombinant oxygenases, radio-HPLC, substrate taxadien-5α-ol. The class given is cell-based, Saccharomyces cerevisiae. Particulars: for product identified HPLC peak: assayed with Taxadien5αol, graded symbols, key not given.
Source text: as §1, §2, §3, §4

The nature of series [4]: In vivo assay of yeast cells expressing recombinant oxygenases, radio-HPLC, substrate taxadienyl acetate. In kind it is cell-based, Saccharomyces cerevisiae. As to conditions: for product identified HPLC peak: assayed with Taxadienyl Ac, graded symbols, key not given. The procedure: (§5) Transformed yeast cells that functionally express a recombinant cytochrome P450 gene from Taxus (by CO-difference spectrum) were tested in vivo for their ability to oxygenate (hydroxylate or epoxidize) taxoid substrates fed exogenously, thereby eliminating the need for microsome isolation for such a preliminary in vitro assay. […] The ether extracts resulting from these incubations were analyzed by radio-HPLC. Several clones converted the taxadienyl-5α-yl acetate substrate to a more polar product.
as §3, §4

Series [5] can be described thus: In vivo screening of functionally expressed clones in yeast with taxoid substrates (general statements). The class given is cell-based, Saccharomyces cerevisiae.
Source text: as §1, §2, §5
Isolated transformants for each full-length cytochrome P450 clone shown to express a functional enzyme by CO-difference spectrum (ten clones) were grown to stationary phase in 2 mL SGI medium at 30° C. and used to inoculate a 10-mL expression culture (in YPL medium). Approximately 8 hours after induction, cells were harvested by centrifugation (10 minutes at 1500 rpm), and the pellet was resuspended in 2 mL of fresh YPL medium. […]

Where [6] appears, read: yeast transformants, radio-HPLC and GC-MS.

B1: clone F14: Taxus cuspidata cytochrome P450 taxane 10β-hydroxylase, full-length clone, SEQ ID NO: 51 (nt) / 64 (aa) (protein, listed as Taxus cuspidata)
chain: MDSFIFLRSIGTKFGQLESSPAILSLTLAPILAIILLLLFRYNHRSSVKLPPGKLGFPLIGETIQLLRTLRSETPQKFFDDRLKKFGPVYMTSLIGHPTVVLCGPAGNKLVLSNEDKLVEMEGPKSFMKLIGEDSIVAKRGEDHRILRTALARFLGAQALQNYLGRMSSEIGHHFNEKWKGKDEVKVLPLVRGLIFSIASTLFFDVNDGHQQKQLHHLLETILVGSLSVPLDFPGTRYRKGLQARLKLDEILSSLIKRRRRDLRSGIASDDQDLLSVLLTFRDEKGNSLTDQGILDNFSAMFHASYDTTVAPMALIFKLLYSNPEYHEKVFQEQLEIIGNKKEGEEISWKDLKSMKYTWQAVQESLRMYPPVFGIFRKAITDIHYDGYTIPKGWRVLCSPYTTHLREEYFPEPEEFRPSRFEDEGRHVTPYTYVPFGGGLRTCPGWEFSKIEILLFVHHFVKNFSSYIPVDPNEKVLSDPLPPLPANGFSIKLFPRS
On to B1, for which the CO diff. spec. entry in series [1] is on record as “+++”. Further, the “product identified HPLC peak” value in series [2] is listed as “No”. The “product formed from taxadien-5α-ol” value in series [3] (setting [6]) is listed as “diol products”. Moreover, the “product formed from taxadien-5α-yl acetate” value in series [4] (setting [6]) is reported as “taxadien-diol monoacetate”. In addition, the “enzyme function assigned from screening” value in series [5] (taxadienol and taxadienyl acetate as test substrates) is “cytochrome P450 taxane-10β-hydroxylase”.

B2: clone F31: Taxus cuspidata cytochrome P450 oxygenase, full-length clone, SEQ ID NO: 46 (nt) / 59 (aa) (protein, listed as Taxus cuspidata)
chain: MDALSLVNSTVAKFNEVTQLQASPAILSTALTAIAGIIVLLVITSKRRSSLKLPPGKLGLPFIGETLEFVKALRSDTLRQFVEEREGKFGRVFKTSLLGKPTVILCGPAGNRLVLSNEEKLLHVSWSAQIARILGLNSVAVKRGDDHRVLRVALAGFLGSAGLQLYIGKMSALIRNHINEKWKGKDEVNVLSLVRDLVMDNSAILFFNIYDKERKQQLHEILKIILASHFGIPLNIPGFLYRKALKGSLKRKKILSALLEKRKDELRSRLASSNQDLLSVLLSFRDERGKPLSDEAVLDNCFAMLDASYDTTTSQMTLILKMLSSNPECFEKVVQEQLEIASNKKEGEEITMKDIKAMKYTWQVLQESLRMLSPVFGTLRKTMNDINHDGYTIPKGWQVVWTTYSTHQKDIYFKQPDKFMPSRFEEEDGHLDAYTFVPFGGGRRTCPGWEYAKVEILLFLHHFVKAFSGYTPTDPHERICGYPVPLVPVKGFPIKLIARS
Take B2: the CO diff. spec. result in series [1] is reported as “+”. Moreover, the “product identified HPLC peak” value in series [2], in series [3] and in series [4] was “No” each time.

B3: clone F21: Taxus cuspidata cytochrome P450 oxygenase, full-length clone, SEQ ID NO: 44 (nt) / 57 (aa) (protein, listed as Taxus cuspidata)
chain: MLIEMDTFVQLESSPVLLSLTLTLILLFIFCSKQYRSSLKLPPGNMGFPLIGETIALASQTPDKFFGDRMKKFGKVFKTSLIGHPTIVLCGSSGNRFLLSNEEKLVRMFPPNSSSKLLGQDSVLGKIGEEHRIVRTALARCLGPQALQNYVSKMSSEIQRHINQKWKGKGEVKMLPLIRSLVFSIATSLFFGITDEQQQERLHHLLETVVTGLLCIPLDFPGTTFRKALHARSKLDEIMSSVIERRRNDLRLGAASSDQDLLSVLLTFKDERGNPFADKEILDNFSFLLHALYDTTISPLTLVFKLVSSNPECYENIAQEQLEILRNKKDGEDISWADLKDMKYTWQAVQETLRMCPPVYGNFRKALTDIHYDGYTIPKGWRILCSPYTTHSKEEYFDDPEKFRPSRFEEQGRDVAPYTFIPFGGGLRICPGREFAKMEILVFMHHFVKAFSSFIPVDPNEKISTDPLPSIPVNGFSINLVPRS
As for B3, in series [1], the CO diff. spec. entry was “+”. Besides, the “product identified HPLC peak” value in series [2] and in series [4] was “No” throughout.

B4: clone F34: Taxus cuspidata cytochrome P450, outlying full-length clone, SEQ ID NO: 53 (nt) / 66 (aa) (protein, listed as Taxus cuspidata)
chain: MAYPELLENLSGDRAQSPAIAAVLTILFLLGIFYILRGLRNNGRRLPPGPIPWPIVGNLHQLGKLPNRNLEELAKKHGPIMLMKLGSVPAVIVSSSAMAKEVLKTHDLVFASRPESAAGKYIAYNYKDIVFSPYGPYWRQMKKICVVELLNARRIESLRSVREEEVSVIIRSVWEKSKQGAVAVNLSKTLSSLTQGLMLQIFSSNDDGGNSSVTAIKEMMSEVSETAGAFNIGDYFPWMDWMDLQGIQRRMTKAHDYFDQVITKIIEQHQRTRAMEDTQQPKDIIDALLQMENTDGVTITMENIKAVVLGIFLGGAETTSTTLEWAMSAMLENPEVAKKVQEEIESVVGRKRVVKEMIWESMEYLQCVVKKTMRLYPAVPLLIPHESTQDCTVNGYFIPERTRILVNAWAIGKDPNVWDDALAFKPKRFLGXNVDLQKGKEFFDMVPFGAGRKGCPGASMAVVTMEHALAQLMHCFQWRIEGELDMSERLAASVQKKVDLCVLPQWRLTSSP
modifications: X: residue not identified in the source; ends and bridges not checked
Consider B4, for which, in series [1], the CO diff. spec. result was “++” and the “CO-difference spectrum” value is listed as “reliable CO-difference spectrum”. The “product identified HPLC peak” value in series [2] is given as “No”. For the same molecule, the “product identified HPLC peak” value in series [3] was “No”. In addition, the “oxygenation of taxoid substrates” value in series [5] (in vivo) is reported as “does not transform the taxoid substrates to oxygenated products”.

Values taken from patent US7005283B2, “Cytochrome P450 oxygenases and their uses” (Washington State University Research Foundation, priority 1999, dated 2006).
